Target: aSyn-VC (alpha-synuclein fused in front of the C-terminal fragment of Venus) (UniProt P37840)

cells with fewer VN-Sph1 + aSyn-VC inclusions than with WT Sph1 (HEK 293, counted by microscopy): 40%
Substance: VN-Sph1 K527A (from UniProt Q9Y6H5 1-919) (natural protein)
